The source of these data is patent US20240366776A1 (Hoffmann-La Roche, published 2024).

In one test the target is PD-1-Fc (UniProt Q15116 25-167, limits assumed). As to the kind of experiment: cell-based or functional assay.
Test [1] has as its target T1, human IL-2 (human, UniProt P60568 21-153, biotin-labeled in the IL2RB blocking assay).
T1 construct: also called biotin-labeled IL-2 (Acro Biosystems IL2-H82E4)
Description: HTRF.

The next test addresses PD-1 (human, UniProt Q15116 25-167, limits assumed). Description: HTRF.
The target of test [2] is T1, human IL-2. As to the kind of experiment: HTRF IL-2:IL2RB.

PD-1-Fc, sequence (Q15116 25-167 limits assumed): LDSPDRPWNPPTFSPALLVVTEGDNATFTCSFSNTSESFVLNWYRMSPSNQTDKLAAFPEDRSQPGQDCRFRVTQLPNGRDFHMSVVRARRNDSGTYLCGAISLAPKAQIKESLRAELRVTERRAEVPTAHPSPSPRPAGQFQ
T1 sequence (P60568 21-153 limits assumed): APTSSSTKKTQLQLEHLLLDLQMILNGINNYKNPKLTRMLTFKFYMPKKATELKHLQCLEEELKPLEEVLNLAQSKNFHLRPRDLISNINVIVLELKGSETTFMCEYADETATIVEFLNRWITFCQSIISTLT
PD-1, sequence (Q15116 25-167 limits assumed): as the sequence (Q15116 25-167 limits assumed) above

B1: AF4387 (other)
heavy 1: APTSSSTKKTQLQLEHLLLDLQMILNGINNYKNPKLTDMLTFEFYMPKKATELKHLQCLERELKPLEEVLNLAQSKNFHLRPRDLISNINVIVLELKGSETTFMCEYADETATIVEFLNRWITFCQSIISTLTGGGGSGGGGSGGGGSGGGGSQVQLVQSGAEVKKPGASVKVSCKASGYTFTDYYMHWVRQAPGQGLEWMGIINPRAGYTSYALKFQGRVTMTRDTSTSTVYMELSSLRSEDTAVYYCTSGWDVWGQGTLVTVSSAKTTAPSVYPLAPVCGDTTGSSVTLGCLVKGYFPEPVTLTWNSGSLSSGVHTFPAVLQSDLYTLSSSVTVTSSTWPSQSITCNVAHPASSTKVDKKIEPRGPTIKPCPPCKCPAPNAAGGPSVFIFPPKIKDVLMISLSPIVTCVVVDVSEDDPDVQISWFVNNVEVHTAQTQTHREDYNSTLRVVSALPIQHQDWMSGKEFKCKVNNKDLGAPIERTISKPKGSVRAPQVYVLPPPEEEMTKKQVTLTCMVTDFMPEDIYVEWTNNGKTELNYKNTEPVLDSDGSYFMYSDLRVEKKNWVERNSYSCSVVHEGLHNHHTTESFSRTPGK
heavy 2: QVQLVQSGAEVKKPGASVKVSCKASGYTFTDYYMHWVRQAPGQGLEWMGIINPRAGYTSYALKFQGRVTMTRDTSTSTVYMELSSLRSEDTAVYYCTSGWDVWGQGTLVTVSSAKTTAPSVYPLAPVCGDTTGSSVTLGCLVKGYFPEPVTLTWNSGSLSSGVHTFPAVLQSDLYTLSSSVTVTSSTWPSQSITCNVAHPASSTKVDKKIEPRGPTIKPCPPCKCPAPNAAGGPSVFIFPPKIKDVLMISLSPIVTCVVVDVSEDDPDVQISWFVNNVEVHTAQTQTHREDYNSTLRVVSALPIQHQDWMSGKEFKCKVNNKDLGAPIERTISKPKGSVRAPQVYVLPPPEKEMTKKQVSLTCLVKDFMPEDIYVEWTNNGKTELNYKNTEPVLKSDGSYFMYSKLTVEKKNWVERNSYSCSVVHEGLHNHHTTKSFSRTPGGGGSGGGSHHHHHH
light: DIQMTQSPSSLSASVGDRVTITCRASQSISTWLAWYQQKPGKAPKLLIYAASSLDSGVPSRFSGSGSGTDFTLTISSLQPEDFATYYCQQSYSFPVTFGQGTKVEIKRADAAPTVSIFPPSSEQLTSGGASVVCFLNNFYPKDINVKWKIDGSERQNGVLNSWTDQDSKDSTYSMSSTLTLTKDEYERHNSYTCEATHKTSTSPIVKSFNRNEC
As for B1, in the test with PD-1-Fc, the “IL-2 activity EC50, HEK-Blue IL-2 reporter cells, IgG1 coated wells (control)” value (“IL-2 activity EC50 … (control)” for short) worked out at 0.419 nM and the “IL-2 activity EC50, HEK-Blue IL-2 reporter cells, PD-1 coated wells” value (“IL-2 activity EC50 … PD-1 coated wells” for short) was found to be 0.057 nM.

B2: PD1-R07-A05 (scFv)
scFv: QVQLVQSGAEVKKPGASVKVSCKASGYTFTTYYVHWVRQAPGQGLEWMGIINPSGGSTSYAQNFQGRVTMTRDTSTSTVYMELSSLRSEDTAVYYCASGWDVWGQGTTVTVSSASGGGGSGGGGSGGGGSHASEIVMTQSPATLSVSPGERATLSCRASQSVNTYLAWYQQKPGQAPRLLIYGASTRATGIPARFSGSGSGTEFTLTISSLQSEDFAVYYCQQYGSSPVTFGQGTRLEIK
B2 registered an IL2 Binding with human IL-2 [1] of 19. Besides, in the test with PD-1, the “PD1 Binding” value is 653. The same molecule came in with an IL2RB Blocking with human IL-2 [2] of 1730.

B3: AF4386 (other)
heavy 1: APTSSSTKKTQLQLEHLLLDLQMILNGINNYKNPKLTDMLTFEFYMPKKATELKHLQCLERELKPLEEVLNLAQSKNFHLRPRDLISNINVIVLELKGSETTFMCEYADETATIVEFLNRWITFCQSIISTLTGGGGSGGGGSGGGGSGGGGSQVQLVQSGAEVKKPGASVKVSCKASGDTFTRYYVHWVRQAPGQGLEWMGIINPSGGYASYAQKFQGRVTMTRDTSTSTVYMELSSLRSEDTAVYYCAAGLFIWGQGTLVTVSSAKTTAPSVYPLAPVCGDTTGSSVTLGCLVKGYFPEPVTLTWNSGSLSSGVHTFPAVLQSDLYTLSSSVTVTSSTWPSQSITCNVAHPASSTKVDKKIEPRGPTIKPCPPCKCPAPNAAGGPSVFIFPPKIKDVLMISLSPIVTCVVVDVSEDDPDVQISWFVNNVEVHTAQTQTHREDYNSTLRVVSALPIQHQDWMSGKEFKCKVNNKDLGAPIERTISKPKGSVRAPQVYVLPPPEEEMTKKQVTLTCMVTDFMPEDIYVEWTNNGKTELNYKNTEPVLDSDGSYFMYSDLRVEKKNWVERNSYSCSVVHEGLHNHHTTESFSRTPGK
heavy 2: QVQLVQSGAEVKKPGASVKVSCKASGDTFTRYYVHWVRQAPGQGLEWMGIINPSGGYASYAQKFQGRVTMTRDTSTSTVYMELSSLRSEDTAVYYCAAGLFIWGQGTLVTVSSAKTTAPSVYPLAPVCGDTTGSSVTLGCLVKGYFPEPVTLTWNSGSLSSGVHTFPAVLQSDLYTLSSSVTVTSSTWPSQSITCNVAHPASSTKVDKKIEPRGPTIKPCPPCKCPAPNAAGGPSVFIFPPKIKDVLMISLSPIVTCVVVDVSEDDPDVQISWFVNNVEVHTAQTQTHREDYNSTLRVVSALPIQHQDWMSGKEFKCKVNNKDLGAPIERTISKPKGSVRAPQVYVLPPPEKEMTKKQVSLTCLVKDFMPEDIYVEWTNNGKTELNYKNTEPVLKSDGSYFMYSKLTVEKKNWVERNSYSCSVVHEGLHNHHTTKSFSRTPGGGGSGGGSHHHHHH
light: DIQMTQSPSSLSASVGDRVTITCRASQSIGRYLAWYQQKPGKAPKLLIYSASNLETGVPSRFSGSGSGTDFTLTISSLQPEDFATYYCQQYNSFPVTFGPGTKVDIKRADAAPTVSIFPPSSEQLTSGGASVVCFLNNFYPKDINVKWKIDGSERQNGVLNSWTDQDSKDSTYSMSSTLTLTKDEYERHNSYTCEATHKTSTSPIVKSFNRNEC
For B3, in the test with PD-1-Fc, the “IL-2 activity EC50 … (control)” value was 1.79 nM and the “IL-2 activity EC50 … PD-1 coated wells” value was 0.05 nM.

B4: AF4389 (other)
heavy 1: APTSSSTKKTQLQLEHLLLDLQMILNGINNYKNPKLTDMLTFEFYMPKKATELKHLQCLERELKPLEEVLNLAQSKNFHLRPRDLISNINVIVLELKGSETTFMCEYADETATIVEFLNRWITFCQSIISTLTGGGGSGGGGSGGGGSGGGGSQVQLVQSGAEVKKPGASVKVSCKASGHTFTRYYMHWVRQAPGQGLEWMGIINPSGGYATYAQKFQGRVTMTRDTSTSTVYMELSSLRSEDTAVYYCASGLFIWGQGTLVTVSSAKTTAPSVYPLAPVCGDTTGSSVTLGCLVKGYFPEPVTLTWNSGSLSSGVHTFPAVLQSDLYTLSSSVTVTSSTWPSQSITCNVAHPASSTKVDKKIEPRGPTIKPCPPCKCPAPNAAGGPSVFIFPPKIKDVLMISLSPIVTCVVVDVSEDDPDVQISWFVNNVEVHTAQTQTHREDYNSTLRVVSALPIQHQDWMSGKEFKCKVNNKDLGAPIERTISKPKGSVRAPQVYVLPPPEEEMTKKQVTLTCMVTDFMPEDIYVEWTNNGKTELNYKNTEPVLDSDGSYFMYSDLRVEKKNWVERNSYSCSVVHEGLHNHHTTESFSRTPGK
heavy 2: QVQLVQSGAEVKKPGASVKVSCKASGHTFTRYYMHWVRQAPGQGLEWMGIINPSGGYATYAQKFQGRVTMTRDTSTSTVYMELSSLRSEDTAVYYCASGLFIWGQGTLVTVSSAKTTAPSVYPLAPVCGDTTGSSVTLGCLVKGYFPEPVTLTWNSGSLSSGVHTFPAVLQSDLYTLSSSVTVTSSTWPSQSITCNVAHPASSTKVDKKIEPRGPTIKPCPPCKCPAPNAAGGPSVFIFPPKIKDVLMISLSPIVTCVVVDVSEDDPDVQISWFVNNVEVHTAQTQTHREDYNSTLRVVSALPIQHQDWMSGKEFKCKVNNKDLGAPIERTISKPKGSVRAPQVYVLPPPEKEMTKKQVSLTCLVKDFMPEDIYVEWTNNGKTELNYKNTEPVLKSDGSYFMYSKLTVEKKNWVERNSYSCSVVHEGLHNHHTTKSFSRTPGGGGSGGGSHHHHHH
light: DIQMTQSPSSLSASVGDRVTITCRASQSINSWLAWYQQKPGKAPKLLIYATSTLESGVPSRFSGSGSGTDFTLTISSLQPEDFATYYCQQYYRFPVTFGQGTKVEIKRADAAPTVSIFPPSSEQLTSGGASVVCFLNNFYPKDINVKWKIDGSERQNGVLNSWTDQDSKDSTYSMSSTLTLTKDEYERHNSYTCEATHKTSTSPIVKSFNRNEC
Turning to B4, in the test with PD-1-Fc, the “IL-2 activity EC50 … (control)” value stood at 1.67 nM and the “IL-2 activity EC50 … PD-1 coated wells” value was 0.118 nM.
